Patent publication US20190240316A1

Assays:
[1] = biological target: RSV strain A2 F protein, pre-fusion-stabilized DS-Cav1 (human respiratory syncytial virus subgroup A strain A2) (UniProt P03420); assay: ELISA on coated antigen
[2] = biological target: RSV strain A2 F protein, pre-fusion-stabilized SC-TM (human respiratory syncytial virus strain A2) (UniProt P03420); assay: ELISA on coated antigen

Row | Substance | EC50 [1] | EC50 [2]
1 | mAb D25 (antibody) | 0.089 µg/mL | 
2 | motavizumab (antibody) | 0.037 µg/mL | 0.028 µg/mL
